Measured values reported in the domain aggregation screens of Martell et al. (2025).

assay: soluble fraction after stress (log2 fold change); higher = more stays soluble; pooled small domains, quantitative proteomics; conditions: stress: 50 degC
How it was run: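 The measure of aggregation propensity here is the base-two logarithm of the fold change in the soluble amount of each protein after stress. A higher value means more of that protein stays in solution. Stress was applied at 50°C to pooled libraries of small protein domains, read out by high-throughput quantitative proteomics.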

Point of comparison: “HMNTDVEKQKVFTALFDDYFRRNSMTSLEKQLFLTALKTNFQNAQKTVAKDHPYYATYSLIISAIENYR”, “soluble fraction (log2)” value 0.145. Against it:
- HMKNEYAMVIQVNGKLRGNMLVSADLEQKDIERMALDNEDIKRFISHENDVKKMIFVPKKLINIVT — lower, -0.351
- HMREVEAPRDLLAALGERPGALDAWKALSFTHQREYVEAIEDARKPETRERRIANAVKMVAERS — within 0.2 log units, 0.285
- HMATAADLLQSATGVPRSDALLLLAKLLGVAKERLIAHPETVVSEKTQATFSDWIERVRGGFPTTYLLG — within 0.2 log units, -0.0115
- HMSAPTAFSERELELLAGMRRGASNKAMAEQLFISVNTVKYHRANLMRKLGARDRNEALEVAARLG — within 0.2 log units, -0.0071
- HMKIELSDNEKIIYDLLSSQHVLLSEIKDKAGLSNKAWDKSTKSLRKLGLIAVEKKDDDIYISKL — within 0.2 log units, -0.0233
- HMQINLSEWVLAAREYAGPEMTQEKLAEHLGRTKANVSAMENGRSKPSFEQMMEIHRVTGYPLPYQ — lower, -0.218
- HMQDGVNLENIEQKLSTLGVGKAQYFLQNVGGNKFNAYMALNTDGVEGYQKGSDTLIEIKNVE — within 0.2 log units, 0.11
- HMEENNIVIYITGAVKKEGIYEIKENSRISDAIEAAGGLLENANIKDINLAYIIEDGVKIYIPTNEEVNK — lower, -0.192
- HMESVQWSVFPSAKYVTIISFDPTTSGGSATAKFKVSDEARSKGFRFRIEAAIGEGIMRSEMYVIEE — within 0.2 log units, 0.0612
- HMSSVGELEVGNIFEGTVNSVRGGKVLLALGNGQMVLAQMDGRVNITPGSSMFFQVKSNDGETVAIRPYTG — lower, -0.133
- HMQDPTAVISRVLEERKHQPGALLPILHGIQDALGYVPREAVAQIAQALNLSRAEIHGVVSFYHHFR — lower, -0.547
- HMVSLEEIINDLTSRIQTAVKMRFSDFVQNRKERVGVIVSFLGMLELVKQGIIDIKQEGHFADIEMETA — lower, -0.296
- HMPTTLEGIEKYLSSGLIKGIGPHLAGKLVEAFGTRVFEVVEHQPERLRTVGGIGRTRAESITSAWRDQ — lower, -0.168
- HMSFYSVVISQDGSMLVAENRNEIYSNEELLELASEVNEKTGTIGTIGSLMYYKADKGGYTLITFLDNS — lower, -3.02
- HMRYFDDEELNNKFLEFLSMRKKIRKPVRTDRALKALLKKLHELSGGDVGLMKQIIDQSLDKEWLGLFEL — lower, -0.422
- HMETNFTGTRIATARKAKNMSQAQLAQQLFISPQAVGKWERGESIPDIVTVVKLADVLGVDLNYFSE — lower, -0.12
- HMPGMLVVYVTGAVRQPGRMVTLAAGSRVSDAIDAAGGLADDADAQALNLSARLNDGDLVHVPSALD — within 0.2 log units, 0.0161
- HMHADIAATVVATMRQLGVLGLPRNYEIFYEALSGTNRELSLAVVSLSNRPTQDDLDRIGRRFFA — lower, -0.785
- HMGASFITSSKDNAINIRESATTDSKVIETIKNGEILESTEKSGDWHKVTYYNSEIKKSFTGYIHNSQLK — within 0.2 log units, 0.168
- HMGMTDEELNREEERVVAELEAKDEEELTIYNEEDLTFEETLDLPEGSLMRDRENGMIYLKVLDIWMPY — lower, -0.54
- HMGNEMQVPNVAGKTVDEAIEIFNNMGLKVAAENKYAQSDDVKEGDVVKTDPSSGRNVKKGSEITLYISQG — within 0.2 log units, 0.0976
- HMPVFSAEQVAKAEADVQKVANKVQEAGADVEKLTTIHNWLLAREKYMPPDLFSTANQIIATAFQKAG — within 0.2 log units, 0.112
- HMEYEETMSQIKHNLNLLPRQQRVIIEMAKFDELTPAEIAKQLGISVQTVRNQLSTGLKKLRQLL — within 0.2 log units, -0.0252
- HMSYQADEIKEKLIDILQNQKTGLSGLEISERIGINRITMTKYLQVFAAEGFIKQKNIGNVIIWFIEDGTE — lower, -0.181
- HMGASLVIVPGAGFLRVSASSQTRLDVYSITGMRVRSVDFEPGTTEIELPAGFYIAGGRKFFV — lower, -1.4
- HMKDESYALGTRLLSHALGKTKLEDLAQEKIDEVVQQSGNKTLEQLLTNIGLGNALSIGIARQLT — higher, 0.383
- HMITPAARLRALKIRLSVDEVAQIVQRLVNGETVYQIGKPDTGGHAKATVGKINALRLAGQLHFL — lower, -1.28
- HMQSVKTQPLRDWLLAHFDKPYPDDEDKVRLAEASGMTRAQVGNWFINARVRTWRPMVLDLGEEIERESV — lower, -0.649
- HMTLGQHIQALRKEAGYSQEALGEALGVTRQSISKWESDQAIPEVDKLVTLSRLFQVPVGVLLQVEQP — lower, -0.16
- HMQSREISYSDFVASVERGEVATVILDGENIRFKGGDNVEYVTVRPADTNVTDLLIENQVVVRAEK — within 0.2 log units, 0.155
- HMDAAANTLRILKALSESPMSADRLAELLMEEGSGRNPRTIRRYIRALREAGFGVEHREGRYVL — lower, -0.381
- HMLRQVSDSNALETAVKKVLDANPEEVERYKSGNKKLISFFVGQTMKATKGAGNPKEINSILAKLL — within 0.2 log units, 0.0186
- HMEKNILPDTSPEKQYEFATSFLKVGDYSTAERAFREFVINNSEHKLAGNAQYWYAETFRIRQ — lower, -0.101
- HMKDITAVISKKKGRDYYYIIVSYHLSNGKRVQKWIKTEFSVNGNNKRKLEQKRIEILQEWQNKLV — lower, -0.642
- HMKDDLTWSEGLMPNVVGMGLRDAMFMLENSGLRVNYSGRGKVTRQSPQPGVRIKRGATVAIELRL — lower, -0.395
- HMHPFELNTVTEGQLKRLPFLSDLQIRELLEYRSRYGKMLTLYELKNVEAFDLETISLLVPFIYISEI — lower, -1.38
- HMIAVLEEGSRFRAINDISGKPFGPEMIIKNGQVIAAGKKILTKPKKLIGKKEGTKFNISGKEYVIKDI — lower, -0.614
- HMGQVPPLTRRETEIARLVSRGLSNKEIASTLVISPRTAEGHVEHILDKLGFSSRTQIATWLNEQTRNGK — lower, -0.0938
- HMQDLAKRWVEEFGDLLYKYTLPRVSDSGIAKDLVQETFLAAWRNIDNFKGEASEKNWLFTILKNKIIDH — lower, -0.213
- HMENTGFKDKKGNYIFDGDIVKDILGNIMKVEFKHFKWQLIPLNKTAFNMPMVDWLDLETETLNAEIIGN — lower, -2.13
- HMGTVSSGSSSTDTPFSLGEIVRHKVFGEGVVLSIEGQGDASRIQINFNTAGTKWLVTAYADLEK — lower, -0.219
- HMEWTDIPTHKVPNVVGKSVEEAKKKLSKFTIEYSGTGEKVVAQSPDAGEKLEEGGTVRLLL — within 0.2 log units, 0.203
- HMNELTDKQILLFSNKLAHNIPFSSKYSKPGESYEEFAERLANELIDPQKVKLYKPYLEEVGFK — within 0.2 log units, 0.302
- HMGYNDQEVKSNLITLLSTSKTGLSGVEISAQLGINRVTMTKFLNVFAAEGIIKQKNIGNLNLWLVEEGTE — lower, -1.58
- HMPQTNIYPNPAFDKLFVSNLENETNFKIMDLFGRTIINSKTKGEISISELKSGIYIIEINNFRQKFVK — lower, -0.839
- HMLLRVGGLVKDGSVRTDNDLGIKFIIEDNLAEVSVLYNGILPDLFREGQGVIAEGKFIDNIFIANEIVA — lower, -0.519
- HMLSDLTPGDLVVHATHGIGRFLGIRKLELEGMTKDYITIQYRGNENLYVPVTQMDLVSRYI — lower, -0.292
- HMITANNYFNEVERIGVETLPETLRKGHDLVVRSTNSGTNWSNYQNNESIRKVIDLYLQKLNEYVSTST — within 0.2 log units, 0.131
- HMVNKQERTYTILRDRIHSGSFAPLERLNIDALARELGVSPIPVREALRRLEAEGWVRFTPNVGAVVSP — lower, -0.165
- HMIELDRTNLLGVFGPKSRPYALLMLSNGEMIKISIGDQFFGWRVYGIDEKSIQVQNGTKQEILRIP — lower, -2.12
- HMKTITLDEAQEIALAEVDGKVTRAVEETDDGRSYYEFDIITNDQKHELEVDASSGKITKNEIDEDYVPS — within 0.2 log units, 0.171
- HMQTTKTGTITASSLYVRSGASTSHKVLGTVSKGKTVQIKDTQDGWHKISYNGDHGWVSGKYVSTT — higher, ≥ 0.62
- HMFANQLLLTRFDLNYIKSDVLSRQIDVLGIPIKKLTIEANNKSIWLQGTSQSLSKVRELIGIIDIRENA — lower, -3.1
- HMQLPTNAAAILRYLSSGAVKGVGSATAVRIVEKFGEETLNILEQDPLRLAEIRGISRDKAKKIGEDFASQ — lower, -0.201
- HMNQKKFIQADYEDRLFDHLAFEVKDMEKIISMMRREKFTITDEPFRLSPTGSLIAFVEDPDRTLIELIER — lower, -0.32
- HMADTFVMPDLVYRRYEPVRGYFERGGFHMGAVKFEPYEGISDGTILRQNPLPGHPLRRRDVISLVVAAS — lower, -2.23
- HMQIKNVDYGTFLDMLDEKNVKEVEIEDEQIVFTDNADPTGYYTTGRMEDPDLVDRLHNSGATFSAI — lower, -0.12
- HMEYQSLVLDFLEQGDFNAEKLKDYQRAFAKQNGMQTLPSKSQILQAYFQLVEEKKINKNSDFELLLRKR — within 0.2 log units, 0.0447
- HMVLELRIGQIVRGVLLQLVGEREGIVSVGGVPVRARLEAEIPLGRGVMLQVQPGSDANNILLKPV — lower, -0.515
- HMQNKYIIKQGNSGELVEVLQELLNLKQDGVFGPQTKKAVIAFQQKHKLVADGIVGPMSWRKLNFNPEELF — lower, -2.13
- HMGLLEMPSERERQVLVLIAEGLSNKEIAARLYLTEGTVKNHAHSLYAKLNVTTRTLAIARARQLGI — lower, -1.54
- HMGDADDLTRIKGIGPKLSKTLNELGIYHFRQIAGWQSDEADWVDDYLSFKGRVMREQWIEQAQKFAS — lower, -0.392
- HMKMDGESQRLLSLIKEQGGSLPIGDKSSPEAIYRLTQMSKKTFKMALGSLYKAKQVVLSPTEVRL — lower, -0.69
- HMYMKMNDRIRSRRKELKMTQSVLAKLVGVNRVTITGWESGDYKPGGENLQALAAALEKTPQWLLDGKD — lower, -0.996
- HMGPKPVDMSPIPEGQRNQVLHDWMYGRAANHPENWGQIRSDALERGLKSGLKADEIHAITGSVARALGLE — within 0.2 log units, 0.12
- HMGAARRFEMSEGGSQKFWEVAVEGPALTVRFGKLGTAGTTQTKTLASAEAAAKEADKLVREKTKKGYAP — within 0.2 log units, 0.222
- HMKKGRIGSIIQYVREHPGVSSSEIITGLGLDISPATIRRDLTLLVAENKLSVEGQNKGTKYFVSPTYDMF — lower, -0.323
- HMREITVEELYELEGIRIVGTIPGISAWVAESGRQMVFLVGQKVKGHDLLEVGESRVVLRKGDSVVNVLL — lower, -0.0622
- HMAKNDSGLNNHTFNTIRDALQKALTDGPQEAKKLTENLPFPADKIITVIRYLADHDEHFSLEDGIISLT — within 0.2 log units, 0.24
- HMLEQEQFESKLLKAINNINETQRIAFLMHRIDGKKYAEIASELNISVKAVEKRIHLALIELKKEIENF — lower, -0.871
- HMSHKYKLTVPETGEGTRVDKFLSSALTELSRTRLKSLIEEGQVTLGGVKLTNPSHRVKSGDELNIEIPVP — within 0.2 log units, 0.146
- HMSPLQLGNYNTLRITRFTDHGAYLDGGDVGEILMPKTYVLPEMKPGDEVRVFVYLDQEERLVGTTET — within 0.2 log units, -0.017
- HMKEQIKVPDLSNKTPEEAKKELNTLGLGARKGGEESSDTVEEGLITRQEPAAGEQVDKNTQILFYVSTGK — within 0.2 log units, 0.0624
- HMPGLDTTILSDILSLKKELPSRSAAKILIMLILAKRIEEGSLNLRTINRILNQYGYTRESLL — within 0.2 log units, 0.0736
